# Measured values: US20230321189A1, “THERAPEUTIC AGENTS, PHARMACEUTICAL COMPOSITIONS, AND ASSOCIATED BIOMARKERS BASED ON TRK-B” (INSTITUTO DE MEDICINA MOLECULAR JOÃO LOBO ANTUNES, priority 2020, published 2023)
# Entries after “also recorded” stand apart in the source; their conditions may differ. Where no end group is shown, it is not given here.
# How the values were obtained:
# [1] = system: bEnd.3 brain endothelioma cells; assay: BEB in vitro integrity assay (FD4 probe); assay type: in vitro ADME; conditions: FD4 added after each TAT-TrkB translocation assay, 2 h
# Method: (§1) To evaluate the ability of the TAT-TrkB peptide to translocate the BEB, the inventors used a well-established in vitro model^15. It comprises a transwell system with an insert in which bEnd.3 brain endothelioma cells (ATTCC-CRL-2299, Lot. 59618606) are cultured for 9 days. In this model, the apical chamber replicates the blood compartment, while the basolateral chamber replicates the brain compartment (FIG. 7a). For these experiments, 6-FAM was fused to the N-terminal of the TAT-TrkB peptide, in order to detect the peptide by fluorescence. The TAT-TrkB-6-FAM peptide (5 μM, diluted in DMEM without phenol red) was delivered to the apical compartment. After incubation times of 1 h, 4 h and 24 h, in different inserts, medium from the apical and basolateral compartments was collected and fluorescence measured at 495 nm excitation and 517 nm emission wavelengths using the Varioskan LUX Multimode microplate reader (Thermo Scientific, Rockford, IL, USA ThermoFisher Scientific). Peptide translocation was quantified as the fluorescence detected in the basolateral compartment normalized to the sum of the fluorescence detected in both compartments. […] For these, FD4 fluorescent probe (diluted in DMEM without phenol red to a final absorbance below 0.1) was added to the apical compartment of the same inserts and incubated for 2 h. […]
# [2] = system: bEnd.3 brain endothelioma cells; conditions: TAT-TrkB-6-FAM 5 μM apical; 1 h, 4 h and 24 h
# Method: as §1
# TrkB-FL [3] = biological target: T1, TrkB-FL (Rattus norvegicus, UniProt Q63604); assay: Aβ-driven TrkB-FL cleavage in primary neuronal cultures (Western blot); assay type: cell-based; design: Western-blot of neuronal cultures; endogenous in cells; host or cells: primary cortical neuronal cultures from E17-E18 embryos; conditions: DIV8 neuronal cultures, peptide without linker, 20 μM (1, 5, 20 and 50 μM)
# Method: Primary neuronal cultures were prepared as routinely in the lab^6. Briefly, animals were deeply anesthetized with isoflurane ([…], Barcelona, Spain) in an anaesthesia chamber before being sacrificed by decapitation. Embryos (E17-E18) were rapidly removed from the uterus and brains were dissected and placed in cold Ca^2+- and Mg^2+-free Hank's Balanced Salt Solution (HBSS) (Gibco, Paisley, UK). Cerebral cortex was isolated, mechanically fragmented and digested with 0.025% (wt/vl) trypsin solution (Gibco, Paisley, UK) in HBSS for 15 min at 37° C. After digestion, cells were precipitated by centrifugation at 1200 rpm. The supernatant was removed and 20% Fetal Bovine Serum (FBS) (Gibco, Paisley, UK) was added to HBSS. […] To obtain single cells and avoid cellular clusters or tissue fragments, the suspension was filtered with a nylon filter (BD FalconTM Cell Strainer 70 μM, Thermo Fisher Scientific, Waltham, MA, USA) and cell density was determined by counting cells in a 0.4% trypan blue solution using a hemacytometer. […] Finally, immunoreactivity was detected using the ECL system (ECL chemiluminescence detection system, GE Healthcare), an appropriate exposure time in a ChemiDoc (Bio-Rad, XRS^+) and quantified by the digital densitometry tool of ImageJ 1.45 software (Bethesda, MD, USA). […]
# TrkB-FL [4] = biological target: T1, TrkB-FL; assay: Calpain in vitro assay, adult rat brain cortex homogenate (Western blot); assay type: biochemical; design: rat cortical tissue or neuronal cultured cells were homogenized in Radio Immuno Precipitation Assay (RIPA) buffer; from tissue; host or cells: adult rat brain cortex homogenate (100 μg protein); conditions: peptide without linker 20 μM, m-calpain 1 or 2 EU, CaCl2 2 mM
# Method: For calpain enzymatic assays, rat cortical tissue or neuronal cultured cells were homogenized in Radio Immuno Precipitation Assay (RIPA) buffer, containing 50 mM Tris-HCl [pH=7.5], 150 mM NaCl, 5 mM ethylenediamine tetra-acetic acid, 0.1% sodium dodecyl sulfate (SDS), 1% [v/vl] Triton X-100, protease inhibitors (Roche, Penzberg, Germany) and phosphatase inhibitors (10 mM NaF and 5 mM Na3VO4). For tissue homogenization, Vibracell VC250 Ultrasonic Liquid Processor was used (Sonics & Materials, Inc, CT, USA). Protein concentration was measured using Bio-Rad DC reagent (Bio-Rad Laboratories, Berkeley, CA, USA) after homogenates clarification by centrifugation (16,000 g, 4° C., 10 min). The purified rat m-calpain (1 or 2 enzymatic units, EU) (Calbiochem, San Diego, CA, USA) was incubated for 30 min at 25° C. in a 100 μL final volume of lysis buffer containing the homogenate protein (100 μg for rat brain cortex experiments and 65 μg for neuronal cultured cells), 2 mM of CaCl2 and TAT-TrkB peptide (5, 20 or 50 μM). […] Finally, immunoreactivity was detected using the ECL system (ECL chemiluminescence detection system, GE Healthcare), an appropriate exposure time in a ChemiDoc (Bio-Rad, XRS^+) and quantified by the digital densitometry tool of ImageJ 1.45 software (Bethesda, MD, USA). […]
# [5] = listed as TAT-TrkB without a linker sequence
# T1 sequence (Q63604 32-821): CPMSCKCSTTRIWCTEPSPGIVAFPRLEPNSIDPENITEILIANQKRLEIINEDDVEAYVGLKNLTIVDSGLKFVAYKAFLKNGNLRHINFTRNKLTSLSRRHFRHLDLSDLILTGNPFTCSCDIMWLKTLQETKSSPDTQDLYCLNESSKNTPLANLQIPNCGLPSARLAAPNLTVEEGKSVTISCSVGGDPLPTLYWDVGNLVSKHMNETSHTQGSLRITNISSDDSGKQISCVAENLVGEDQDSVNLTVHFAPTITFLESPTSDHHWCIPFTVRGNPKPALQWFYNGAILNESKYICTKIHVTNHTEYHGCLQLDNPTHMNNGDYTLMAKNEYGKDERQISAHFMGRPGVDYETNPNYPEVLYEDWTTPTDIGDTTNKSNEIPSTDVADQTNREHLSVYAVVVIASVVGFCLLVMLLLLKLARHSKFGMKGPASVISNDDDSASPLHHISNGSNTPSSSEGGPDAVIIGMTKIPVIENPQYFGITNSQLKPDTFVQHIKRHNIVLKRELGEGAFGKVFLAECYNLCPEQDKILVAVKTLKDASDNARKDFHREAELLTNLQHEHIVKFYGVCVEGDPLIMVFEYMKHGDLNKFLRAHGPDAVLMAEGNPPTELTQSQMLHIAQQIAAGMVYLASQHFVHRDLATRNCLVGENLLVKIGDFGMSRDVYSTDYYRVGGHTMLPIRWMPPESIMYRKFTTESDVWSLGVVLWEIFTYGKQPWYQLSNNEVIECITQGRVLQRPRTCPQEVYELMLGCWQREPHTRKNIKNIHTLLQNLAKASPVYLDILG
Sequence,BEB integrity (clearance of FD4 from the apical chamber) [1],translocation of the BEB [2],TrkB-FL cleavage and TrkB-ICD formation with Aβ incubation (TrkB-FL [3]),TrkB-FL cleavage and TrkB-ICD formation with Aβ incubation (TrkB-FL [3]; [5]),TrkB-FL cleavage and TrkB-ICD formation by m-calpain (TrkB-FL [4]),TrkB-FL cleavage and TrkB-ICD formation by m-calpain (TrkB-FL [4]; [5])
YGRKKRRQRRRKKFGITNSQLKP [TAT-TrkB],without affecting its integrity; also recorded: negligible,translocated the BEB overtime,,,,
"YGRKKRRQRRRPQYFGITNSQLKPDTF [SEQ ID NO: 25, first version of TAT-TrkB without the linker]",,,not able to prevent TrkB-FL cleavage,not prevented,not able to prevent TrkB-FL cleavage,not prevented
